# Experimental data reported in US20100080799.
# Tested on: recombinant H2A.X (WT), N-terminal 6xHis tag
substance,measurement,value
recombinant N-terminal portion of WSTF (N-WSTF),kinase activity (in vitro kinase assay),Only N-WSTF had kinase activity
